Our source for the Kd values is patent US20220387557A1 (OXFORD UNIVERSITY INNOVATION, published 2022).

The assay deals with T1, Fc tagged human TNFR1 (Sino Biological) (human, UniProt P19438 22-211, limits assumed).
T1 construct: Bought reagent; also called hTNFR1; hTNFR1-Fc; not shown: Fc tag of the bought protein
T1 sequence (looked up): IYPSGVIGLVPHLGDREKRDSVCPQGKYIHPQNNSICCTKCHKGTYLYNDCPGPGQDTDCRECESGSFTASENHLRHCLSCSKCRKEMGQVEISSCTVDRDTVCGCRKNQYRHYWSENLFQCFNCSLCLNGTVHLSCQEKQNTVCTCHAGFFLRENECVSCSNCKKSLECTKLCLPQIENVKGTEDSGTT
Nature of the assay: SPR, Biacore single cycle kinetics, stability study, before freezing (t=0).

B1: TNF mutein B2 (ligand)
chain: VRSSSRTPSDKPVAHVVANPQAEGQLQWLNRRANALLANGVELRDNQLVVPSEGLYLIYSQVLFKGQGCPSTHVLLTHTISRITASYSGKVNLLSAIKSPCQRETPEGAEAKPWYEPIYLGGVFQLEKGDRLSAEINRPDYLDFAESGQVYFGIIAL
notes: Human TNF mutein, TASYSG at positions 84-89; not shown: C-terminal FLAG tag and His6 tag from vector pANT65
In turn, B1 displayed a Kd of 0.0175 nM.
